US20230071765A1, “COMPOSITIONS HAVING THIOREDOXIN ACTIVITY AND RELATED METHODS” (ORPRO THERAPEUTICS, INC., priority 2020, published 2023)

System: primary HBE cells from CF donors homozygous for F508del
Assay: μOCT of MCT rate and CBF in CF primary HBE cells
Format: cell-based, human
Source text: Primary human bronchial epithelial (HBE) cells were derived from lung explants from healthy failed donors and CF patients homozygous for F508del CFTR. […]
One-micron resolution spectral domain μOCT was used to obtain measurements of mucociliary transport (MCT) rate and ciliary beat frequency (CBF) in HBE monolayers and of MCT rate of sputum ex vivo. This first-in-kind, high-speed (40 frames per second, 512 lines per frame) microscopic reflectance imaging modality enables simultaneous anatomic imaging in cell cultures and intact tissues that readily distinguishes the properties of CF compared to normal epithelia (Liu L, Chu K K, Houser G H, Diephuis B J, Li Y, Wilsterman E J, Shastry S, Dierksen G, Birket S E, Mazur M, et al., 2013, Method for quantitative study of airway functional microanatomy using micro-optical coherence tomography, PLoS One 8(1):e54473; Tuggle K L, Birket S E, Cui X, Hong J, Warren J, Reid L, Chambers A, Ji D, Gamber K, Chu K K, et al., 2014, Characterization of defects in ion transport and tissue development in Cystic Fibrosis Transmembrane Conductance Regulator (CFTR)-knockout rats. […] Images were captured, and MCT rate and CBF calculated, as described in the preceding references.

B1: ORP100S: thioredoxin with monothiol active site, Cys35 and non-active Cys 62, 69 and 73 substituted with serine (SEQ ID NO:29) (protein)
chain: MVKQIESKTAFQEALDAAGDKLVVVDFSATWCGPSKMIKPFFHSLSEKYSNVIFLEVDVDDSQDVASESEVKSMPTFQFFKKGQKVGEFSGANKEKLEATINELV
modifications: synthetic peptide motif
CBF (3 hrs post treatment): no meaningful differences
MCT rate (3 hrs post-treatment, ORP100S 1-3 mM, DTT 1.6 mM, PBS 7.30±2.9, mean±SE): 54.73±15.3 mm/min
